Assay [1] addresses T1, human FcRH5 protein fragment (soluble) (human, UniProt Q96RD9 16-851).
T1 construct: whole entry named; also called soluble human FcRH5; Human FcRH5 (BIACORE analyte)
T1 sequence: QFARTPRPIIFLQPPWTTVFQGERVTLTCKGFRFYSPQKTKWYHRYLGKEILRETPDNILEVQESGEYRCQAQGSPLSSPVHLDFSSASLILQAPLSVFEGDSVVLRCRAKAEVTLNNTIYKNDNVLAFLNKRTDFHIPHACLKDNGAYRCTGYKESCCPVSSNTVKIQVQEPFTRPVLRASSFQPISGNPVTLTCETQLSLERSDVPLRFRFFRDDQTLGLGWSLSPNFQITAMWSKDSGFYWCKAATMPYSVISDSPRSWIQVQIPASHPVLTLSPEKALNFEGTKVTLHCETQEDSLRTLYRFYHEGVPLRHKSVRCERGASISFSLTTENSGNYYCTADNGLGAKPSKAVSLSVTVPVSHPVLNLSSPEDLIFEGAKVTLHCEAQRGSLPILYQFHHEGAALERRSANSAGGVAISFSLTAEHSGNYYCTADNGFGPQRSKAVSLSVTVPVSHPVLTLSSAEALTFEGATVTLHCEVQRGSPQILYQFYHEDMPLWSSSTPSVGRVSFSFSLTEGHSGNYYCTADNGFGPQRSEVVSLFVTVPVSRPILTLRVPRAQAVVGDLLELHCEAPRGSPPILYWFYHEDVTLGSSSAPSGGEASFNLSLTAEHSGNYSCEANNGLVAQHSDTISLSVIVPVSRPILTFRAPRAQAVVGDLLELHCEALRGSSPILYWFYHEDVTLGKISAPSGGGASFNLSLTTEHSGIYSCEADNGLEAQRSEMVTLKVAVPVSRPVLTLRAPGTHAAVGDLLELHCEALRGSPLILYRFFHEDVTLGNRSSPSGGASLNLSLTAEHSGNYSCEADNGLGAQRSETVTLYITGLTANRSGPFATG
Put plainly: SPR, hIgG capture, 1:1 model. The procedure: Briefly, a human IgG capture surface was generated on a Series S CM5 chip using amine coupling and the human IgG capture kit (GE Life Sciences, Piscataway, NJ). Test antibodies were then captured on flow cells 2, 3, or 4, with flow cell 1 used as a reference. An FcRH5 protein fragment was used as the analyte, with a flow rate of […]. Between injections the capture surface was regenerated by a 30-second injection of 3M magnesium chloride or 10 mM glycine, pH 1.5. Interactions were assessed at 25° C. in 10 mM HEPES pH7.4, 150 mM NaCl, and 0.05% Tween 20 (HBSP). Reference data from the reference flow cell and from injection of buffer alone were subtracted prior to kinetic analysis. Kinetic information was calculated by fitting data to a 1:1 binding model. Reference subtraction and data fitting were performed using BIAevaluation software (GE Life Sciences, Piscataway, NJ).
Kinetic characterization experiments were carried out (see Table 8). In these experiments, binding of soluble FcRH5 protein fragment to purified antibodies in human TDB antibody format was analyzed at six different non-zero concentrations (a 1:3 dilution series, one concentration injected twice as a replicate). Flow rate was set at 40 μl/min and association and dissociation monitored for 600 s.
For orientation: In SPR one partner is held on a chip, and binding of the other changes the refractive index at the surface.

Assay [2] deals with T2, human E11 protein (amino acids 745-850 of SEQ ID NO: 114, N-terminal His tag) (human, UniProt Q96RD9 745-850).
T2 construct: Membrane-proximal Ig domain of FcRH5, produced in CHO cells; also called human E11 domain; recombinant human E11
T2 sequence: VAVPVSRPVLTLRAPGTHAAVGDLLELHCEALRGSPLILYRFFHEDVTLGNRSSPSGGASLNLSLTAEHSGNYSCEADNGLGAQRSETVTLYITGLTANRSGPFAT
Put plainly: SPR, IgG captured on protein A, monovalent. The procedure:
(§1) *E11 domain, transmembrane domain, and cytoplasmic domains of human FcRHS. §Surface plasmon resonance BIACORE * KD, monovalent affinity. Human E11 domain experiments were performed 1 to 3 times and averaged.
(§2) Briefly, test antibodies were captured on flow cells 2, 3 or 4 with flow cell 1 as a reference on a protein A Series S CM5 chip (GE Life Sciences, Piscataway, NJ). An FcRH5 protein fragment was used as analyte, with a flow rate of 30 μl/minute. Between injections the capture surface was regenerated by a 30 second injection of 10 mM glycine, pH 1.5 at a flow rate of 10 μl/minute. Interactions were assessed at 25° C. in 10 mM HEPES pH 7.4, 150 mM NaCl, 0.05% Tween 20 (HBSP). Reference data from the reference flow cell and from injection of buffer alone was subtracted prior to kinetic analysis. Kinetic information was calculated by fitting data to a 1:1 binding model. Reference subtraction and data fitting were performed using BIAevaluation software (GE Life Sciences, Piscataway, NJ).

The target of assay [3] is T3, cynomolgus E11 domain protein (cynomolgus monkey).
T3 construct: whole entry named; also called cyno E11
T3 chain: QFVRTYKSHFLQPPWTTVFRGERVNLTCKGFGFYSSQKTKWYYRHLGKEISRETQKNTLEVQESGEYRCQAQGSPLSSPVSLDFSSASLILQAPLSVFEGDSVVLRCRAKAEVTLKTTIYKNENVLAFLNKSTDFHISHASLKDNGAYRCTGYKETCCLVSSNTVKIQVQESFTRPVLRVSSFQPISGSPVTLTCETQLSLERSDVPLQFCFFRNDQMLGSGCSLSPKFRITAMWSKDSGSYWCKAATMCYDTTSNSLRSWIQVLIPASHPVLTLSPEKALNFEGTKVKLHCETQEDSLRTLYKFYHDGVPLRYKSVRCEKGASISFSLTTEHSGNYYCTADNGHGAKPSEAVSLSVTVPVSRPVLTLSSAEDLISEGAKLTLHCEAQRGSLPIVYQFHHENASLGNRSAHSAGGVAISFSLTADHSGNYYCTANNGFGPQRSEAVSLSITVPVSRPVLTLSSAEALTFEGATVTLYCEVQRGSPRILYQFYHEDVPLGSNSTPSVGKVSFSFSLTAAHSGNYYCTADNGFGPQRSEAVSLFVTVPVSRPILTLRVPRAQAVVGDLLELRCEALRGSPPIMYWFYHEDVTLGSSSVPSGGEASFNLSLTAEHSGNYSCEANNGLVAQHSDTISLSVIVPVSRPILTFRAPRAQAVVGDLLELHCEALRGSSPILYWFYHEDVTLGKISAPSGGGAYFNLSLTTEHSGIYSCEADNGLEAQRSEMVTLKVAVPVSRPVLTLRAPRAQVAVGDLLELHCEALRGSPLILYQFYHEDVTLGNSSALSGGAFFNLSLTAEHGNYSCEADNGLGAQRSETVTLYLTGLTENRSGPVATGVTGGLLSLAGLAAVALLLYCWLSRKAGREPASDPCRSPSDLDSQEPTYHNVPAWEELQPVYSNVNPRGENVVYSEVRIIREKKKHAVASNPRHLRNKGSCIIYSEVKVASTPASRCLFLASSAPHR
Kind of assay: SPR, IgG captured on protein A, monovalent. The procedure:
as §1, §2

One may read the Kd as the equilibrium constant for the complex coming apart. Low values mean a tighter complex, high ones a looser complex. One may read the koff as the first-order rate constant of dissociation. A word on the kon: it is the second-order rate constant of association. The low end stands for slow association, the high end for fast association.

B1: hu1G7.v1.4/38E4.v1 TDB (bispecific antibody, V domains shown)
VH 1: EVQLVESGPGLVKPSETLSLTCTVSGFSLTRFGVHWVRQPPGKGLEWLGVIWRGGSTDYNAAFMSRLTISKDNSKNQVSLKLSSVTAADTAVYYCSNHYYGSSDYALDNWGQGTLVTVSS
VL 1: DIQMTQSPSSLSASVGDRVTITCKASQDVRNLVVWFQQKPGKAPKLLIYSGSYRYSGVPSRFSGSGSGTDFTLTISSLQPEDFATYYCQQHYSPPYTFGQGTKVEIK
VH 2: EVQLVQSGAEVKKPGASVKVSCKASGFTFTSYYIHWVRQAPGQGLEWIGWIYPENDNTKYNEKFKDRVTITADTSTSTAYLELSSLRSEDTAVYYCARDGYSRYYFDYWGQGTLVTVSS
VL 2: DIVMTQSPDSLAVSLGERATINCKSSQSLLNSRTRKNYLAWYQQKPGQSPKLLIYWTSTRKSGVPDRFSGSGSGTDFTLTISSLQAEDVAVYYCKQSFILRTFGQGTKVEIK
notes: knob-into-hole TDB; also called 1G7.v1.4 TDB; 1G7.v1.4 (TDB format)
In assay [1], B1 displayed a dissociation constant (Kd) of 2.4 nM, a koff of 0.001 s⁻¹ and a kon of 500000 M⁻¹ s⁻¹.

B2: 1G7.v85/38E4.v1 TDB (bispecific antibody, V domains shown)
VH 1: EVQLVESGPGLVKPSETLSLTCTVSGFSLTRFGVHWVRQPPGKGLEWLGVIWRGGSTDYNAAFVSRLTISKDNSKNQVSLKLSSVTAADTAVYYCSNHYYGSSDYALDNWGQGTLVTVSS
VL 1: DIQMTQSPSSLSASVGDRVTITCKASQDVRNLVVWFQQKPGKAPKLLIYSGSYRYSGVPSRFSGSGSGTDFTLTISSLQPEDFATYYCQQHYSPPYTFGQGTKVEIK
VH 2: EVQLVQSGAEVKKPGASVKVSCKASGFTFTSYYIHWVRQAPGQGLEWIGWIYPENDNTKYNEKFKDRVTITADTSTSTAYLELSSLRSEDTAVYYCARDGYSRYYFDYWGQGTLVTVSS
VL 2: DIVMTQSPDSLAVSLGERATINCKSSQSLLNSRTRKNYLAWYQQKPGQSPKLLIYWTSTRKSGVPDRFSGSGSGTDFTLTISSLQAEDVAVYYCKQSFILRTFGQGTKVEIK
notes: knob-into-hole TDB; also called 1G7.v85 TDB; 1G7.v85 (TDB format)
As for B2, in assay [1], the Kd worked out at 2.4 nM, the koff came to 0.001 s⁻¹ and the on-rate (kon) was determined as 400000 M⁻¹ s⁻¹.

B3: 17B1 (antibody, mouse IgG2a, V domains shown)
VH: QVQLQQSGPELVRPGVSVKISCKGSGYTFTHYAMHWVKQSHTKSLEWIGMISSSSGNTNFNQKFMDKATMTVDKSSTTAYLELARLTFGDSAIYYCARWSYYALFDYWGQGTTVTVSS
VL: ENVLTQSPAIMSASPGEKVTMTCSADSSVDYIHWYQQKSNTSPKLWIYDTSKLASGVPGRFSGSGSGNSYSLTISSMEAEDFATYYCFQGSGYPLTFGSGTKLELK
notes: mouse mAb, Campaign C; recombinant murine IgG2a for SPR
B3: the Kd in assay [2] was 68 nM; in assay [3], 27 nM.

B4: 15G8 (antibody, mouse IgG2a, V domains shown)
VH: EVQLQQSGPELVKPGASVKMSCKASGYTFTNYVIHWMKQKPGQGLEWIGYISPYNDYTKYNEKFEGKATLTSDKSSNTAYMELSSLTSEDSAVYYCARRDYYGSSDYWGQGTTLTVSS
VL: QIVLTQSPAIMSASPGEKVTMTCSASSSVDYMHWYQQKSGTSPKKWIYDTSKLASGVPARFSGSGSGTSYSLTIGSMEAEDAATYYCQQWSSNPPTFGGGTKLEIK
notes: mouse mAb, Campaign C; recombinant murine IgG2a for SPR; also called mAb 15G8
For B4, the Kd in assay [2] came to 0.5 nM; in assay [3] it was 9.1 nM.

These data come from patent US20240383984A1 (Genentech, published 2024).
